{
  "source": "paper PMC12881460",
  "about": "“Biophysical characterization of Eag chaperones suggests the mechanism of effector transmembrane domain release” (Nature Communications, 2026)",
  "molecules": {"B1": {"name": "EagT6 I24F (natural protein)", "chain": "MTLYRLHEADLEIPDAWQDQSINFFKLPASGPAREASFVISRDASQGDAPFADYVARQLENAEKQLPGFKLHKRWDINIHGHAAVLLDYQWQREGRDLMLRQVFIERRPAVLITTLTTTPADLPHHEPAWKQAMQTLVPRPTPS"}, "B2": {"name": "EagT6 L66A (natural protein)", "chain": "B1 chain with F24I, L66A", "notes": "also called EagT6-TMD L66A (in complex)"}, "B3": {"name": "EagT6 Q102A (natural protein)", "chain": "B1 chain with F24I, Q102A"}, "B4": {"name": "Tse6(1–61) (domain or fragment)", "chain": "MDAQAAARLGDEIAHGFGVAAMVAGAVAGALIGAAVVAATAATGGLAAVILAGSIAAGGLS", "notes": "not shown: His6, C-terminal, kept"}, "B5": {"name": "EagT6 Q58A (natural protein)", "chain": "B1 chain with F24I, Q58A", "notes": "also called EagT6-TMD Q58A (in complex)"}, "B6": {"name": "EagT6 S41A (natural protein)", "chain": "B1 chain with F24I, S41A"}},
  "key": {"[1]": {"target": "SciW I25F (Salmonella Typhimurium)", "assay": "dynamic light scattering; 50 mM Tris pH 8.0, 250 mM NaCl, 1 mM BME, 25 °C, 0.5 mg/ml protein"}, "[2]": {"target": "Rhs1(1–59) (Salmonella Typhimurium)", "assay": "stopped-flow fluorescence unfolding kinetics; co-purified complex or apo chaperone, 10 μM diluted 1/10 into GdmCl in 50 mM Tris, 250 mM NaCl, 1 mM BME, 20 °C; rate extrapolated to 0 M GdmCl"}, "[3]": {"target": "SciW Q58A (Salmonella Typhimurium)", "assay": "dynamic light scattering; 50 mM Tris pH 8.0, 250 mM NaCl, 1 mM BME, 25 °C, 0.5 mg/ml protein"}, "[4]": {"target": "SciW (Salmonella Typhimurium)", "assay": "dynamic light scattering; 50 mM Tris pH 8.0, 250 mM NaCl, 1 mM BME, 25 °C, 0.5 mg/ml protein"}, "[5]": {"target": "Tse6(1–61) (Pseudomonas aeruginosa) (UniProt Q9I739)", "assay": "GdmCl denaturation followed by steady-state tryptophan fluorescence (unfolding free energy of the co-purified complex against the apo chaperone); 1 μM protein dimer, 25 mM Tris pH 7.0, GdmCl series, room temperature, 1 h equilibration; KTMD calculated by Eq. (7) from ΔG° of unfolding extrapolated to 0 M denaturant"}, "[6]": {"target": "SciW S41A (Salmonella Typhimurium)", "assay": "dynamic light scattering; 50 mM Tris pH 8.0, 250 mM NaCl, 1 mM BME, 25 °C, 0.5 mg/ml protein"}, "[7]": {"target": "SciW Q106A (Salmonella Typhimurium)", "assay": "dynamic light scattering; 50 mM Tris pH 8.0, 250 mM NaCl, 1 mM BME, 25 °C, 0.5 mg/ml protein"}, "[8]": {"target": "the molecule itself", "assay": "dynamic light scattering; 50 mM Tris pH 8.0, 250 mM NaCl, 1 mM BME, 25 °C, 0.5 mg/ml protein"}, "[9]": {"target": "B5", "assay": "GdmCl denaturation followed by steady-state tryptophan fluorescence (unfolding free energy of the co-purified complex against the apo chaperone); 1 μM protein dimer, 25 mM Tris pH 7.0, GdmCl series, room temperature, 1 h equilibration; KTMD calculated by Eq. (7) from ΔG° of unfolding extrapolated to 0 M denaturant", "settings": "both partners purified"}},
  "note": "Numbering of substitutions follows the chain as printed. In names and notes the source's numbering stands.",
  "data": [
    {"molecule": "SciW I25F (natural protein)", "values": [
      {"measurement": "stoichiometry N", "setting": "[1]", "result": 2}
    ]},
    {"molecule": "SciW L66A (natural protein)", "values": [
      {"measurement": "lifetime of the complex", "setting": "[2]", "result": 2, "unit": "h"}
    ]},
    {"molecule": "SciW Q58A (natural protein)", "values": [
      {"measurement": "stoichiometry N", "setting": "[3]", "result": 2},
      {"measurement": "lifetime of the complex", "setting": "[2]", "result": 0.267, "unit": "h"}
    ]},
    {"molecule": "SciW (natural protein)", "values": [
      {"measurement": "stoichiometry N", "setting": "[4]", "result": 2},
      {"measurement": "lifetime of the complex", "setting": "[2]", "result": 15, "unit": "h"}
    ]},
    {"molecule": "EagT6 L66A (from UniProt Q9I738) (natural protein)", "values": [
      {"measurement": "Ka", "setting": "[5]", "result": "< 1e+06", "unit": "M⁻¹"}
    ]},
    {"molecule": "SciW S41A (natural protein)", "values": [
      {"measurement": "stoichiometry N", "setting": "[6]", "result": 2}
    ]},
    {"molecule": "SciW Q106A (natural protein)", "values": [
      {"measurement": "stoichiometry N", "setting": "[7]", "result": 2}
    ]},
    {"molecule": "B1", "values": [
      {"measurement": "stoichiometry N", "setting": "[8]", "result": 2}
    ]},
    {"molecule": "B2", "values": [
      {"measurement": "stoichiometry N", "setting": "[8]", "result": 2}
    ]},
    {"molecule": "B3", "values": [
      {"measurement": "stoichiometry N", "setting": "[8]", "result": 2}
    ]},
    {"molecule": "B4", "values": [
      {"measurement": "Kd", "setting": "[9]", "result": "~0.03", "unit": "nM"}
    ]},
    {"molecule": "B5", "values": [
      {"measurement": "stoichiometry N", "setting": "[8]", "result": 2}
    ]},
    {"molecule": "B6", "values": [
      {"measurement": "stoichiometry N", "setting": "[8]", "result": 2}
    ]}
  ]
}
